Measured values taken from patent US20150203577A1 (Chugai, published 2015).
Residue numbers refer to the chain shown, from its start. Values joined by “and” are separate entries in the source; they are usually repeats but may differ in a detail not shown here. Equal values may be shown once.

T1: mouse FcγRIII (mouse, UniProt P08508 31-215)
T1 construct: Extracellular domain with C-terminal His tag, made in FreeStyle 293 cells; also called mFcγRIII; mFcgRIII
T1 chain: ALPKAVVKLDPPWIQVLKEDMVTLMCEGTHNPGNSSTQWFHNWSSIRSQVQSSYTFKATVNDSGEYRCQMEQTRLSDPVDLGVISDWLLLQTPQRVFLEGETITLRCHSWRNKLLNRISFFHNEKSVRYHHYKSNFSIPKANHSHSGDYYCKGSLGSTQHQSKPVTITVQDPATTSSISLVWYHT

T2: mouse FcγRII (mouse, UniProt P08101 30-210)
T2 construct: Extracellular domain with C-terminal His tag, made in FreeStyle 293 cells; also called mFcγRII; mFcgRII
T2 sequence: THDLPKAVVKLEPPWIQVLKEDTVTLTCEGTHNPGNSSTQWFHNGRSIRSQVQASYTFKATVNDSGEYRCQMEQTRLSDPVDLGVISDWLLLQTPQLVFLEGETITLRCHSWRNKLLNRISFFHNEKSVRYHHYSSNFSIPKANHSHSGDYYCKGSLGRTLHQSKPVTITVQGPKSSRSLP

T3: mouse FcγRIII (mouse, UniProt P08508 31-215)
T3 construct: also called mFcγRIII; mFcgRIII
T3 chain: T1 chain

T4: mouse FcγRII (mouse, UniProt P08101 30-210)
T4 construct: also called mFcγRII; mFcgRII
T4 sequence: T2 sequence

B1: H237-MB687/MRAL-k0 (antibody, mouse IgG1, kappa)
heavy: QVQLQESGPGLVKPSETLSLTCAVSGHSISHDHAWSWVRQPPGEGLEWIGFISYSGITNYNPSLQGRVTISRDNSKNTLYLQMNSLRAEDTAVYYCARSLARTTAMDYWGEGTLVTVSSAKTTPPSVYPLAPGSAAQTNSMVTLGCLVKGYFPEPVTVTWNSGSLSSGVHTFPAVLQSDLYTLSSSVTVPSSTWPSETVTCNVAHPASSTKVDKKIVPRDCGCKPCICEPPEVELVFIFPPKPKDVLTITLTPKVTCVVVDISKDDPEVQFSWFVDDVEVHTAQTQPREEQFNSTFRSVSELPIMHQDWLNGKEFKCRVNSAAFPAPIEKTISKTKGRPKAPQVYTIPPPKEQMAKDKVSLTCMITDFFPEDITVEWQWNGQPAENYKNTQPIMDTDGSYFVYSKLNVQKSNWEAGNTFTCSVLHEGLHNHHTEKSLSHSPGK
light: not shown
notes: copies: 2 + 2
B2: H237-MB599/MRAL-k0 (antibody, mouse IgG1, kappa)
heavy: B1 heavy with P230V, V233E, E234S, L235F
light: not shown
notes: copies: 2 + 2
B3: H237-MB657/MRAL-k0 (antibody, mouse IgG1, kappa)
heavy: B1 heavy with P231N, L235F
light: not shown
notes: copies: 2 + 2
B4: H237-MB600/MRAL-k0 (antibody, mouse IgG1, kappa)
heavy: B1 heavy with P230V, V233E, E234S, L235W
light: not shown
notes: copies: 2 + 2
B5: H237-MB110/MRAL-k0 (antibody, mouse IgG1, kappa)
heavy: B1 heavy with E229T, P230V, E234S, L235D
light: not shown
notes: copies: 2 + 2
B6: MB037 (antibody, mouse IgG1, kappa)
heavy: B1 heavy with E229T, P230V, P231A, E234S, L235S
light: not shown
notes: copies: 2 + 2
B7: MB161 (antibody, mouse IgG1, kappa)
heavy: B1 heavy with E229T, P230V, E234S, L235S, F237W
light: not shown
notes: copies: 2 + 2
B8: MB261 (antibody, mouse IgG1, kappa)
heavy: B1 heavy with E229T, P230V, E234S, L235S, S294L
light: not shown
notes: copies: 2 + 2
B9: MB039 (antibody, mouse IgG1, kappa)
heavy: B1 heavy with E229T, P230V, P231E, E234S, L235S
light: not shown
notes: copies: 2 + 2
B10: MB093 (antibody, mouse IgG1, kappa)
heavy: B1 heavy with E229T, P230V, L235S
light: not shown
notes: copies: 2 + 2
B11: MB139 (antibody, mouse IgG1, kappa)
heavy: B1 heavy with E229T, P230V, E234S, L235S, V236Q
light: not shown
notes: copies: 2 + 2
B12: MB129 (antibody, mouse IgG1, kappa)
heavy: B1 heavy with E229T, P230V, E234S, L235S, V236E
light: not shown
notes: copies: 2 + 2
B13: MB102 (antibody, mouse IgG1, kappa)
heavy: B1 heavy with E229T, P230V, E234P, L235S
light: not shown
notes: copies: 2 + 2
B14: MB052 (antibody, mouse IgG1, kappa)
heavy: B1 heavy with E229T, P230V, P231V, E234S, L235S
light: not shown
notes: copies: 2 + 2
B15: MB111 (antibody, mouse IgG1, kappa)
heavy: B1 heavy with E229T, P230V, E234S, L235E
light: not shown
notes: copies: 2 + 2
B16: MB103 (antibody, mouse IgG1, kappa)
heavy: B1 heavy with E229T, P230V, E234Q, L235S
light: not shown
notes: copies: 2 + 2
B17: MB188 (antibody, mouse IgG1, kappa)
heavy: B1 heavy with E229T, P230V, E234S, L235S, I262L
light: not shown
notes: copies: 2 + 2
B18: MB040 (antibody, mouse IgG1, kappa)
heavy: B1 heavy with E229T, P230V, P231F, E234S, L235S
light: not shown
notes: copies: 2 + 2
B19: MB143 (antibody, mouse IgG1, kappa)
heavy: B1 heavy with E229T, P230V, E234S, L235S, V236W
light: not shown
notes: copies: 2 + 2
B20: MB045 (antibody, mouse IgG1, kappa)
heavy: B1 heavy with E229T, P230V, P231L, E234S, L235S
light: not shown
notes: copies: 2 + 2
B21: MB132 (antibody, mouse IgG1, kappa)
heavy: B1 heavy with E229T, P230V, E234S, L235S, V236H
light: not shown
notes: copies: 2 + 2
B22: MB162 (antibody, mouse IgG1, kappa)
heavy: B1 heavy with E229T, P230V, E234S, L235S, F237Y
light: not shown
notes: copies: 2 + 2
B23: MB038 (antibody, mouse IgG1, kappa)
heavy: B1 heavy with E229T, P230V, P231D, E234S, L235S
light: not shown
notes: copies: 2 + 2
B24: MB251 (antibody, mouse IgG1, kappa)
heavy: B1 heavy with E229T, P230V, E234S, L235S, F292W
light: not shown
notes: copies: 2 + 2
B25: MB053 (antibody, mouse IgG1, kappa)
heavy: B1 heavy with E229T, P230V, P231W, E234S, L235S
light: not shown
notes: copies: 2 + 2
B26: MB031 (antibody, mouse IgG1, kappa)
heavy: B1 heavy with E229T, P230Q, E234S, L235S
light: not shown
notes: copies: 2 + 2
B27: MB054 (antibody, mouse IgG1, kappa)
heavy: B1 heavy with E229T, P230V, P231Y, E234S, L235S
light: not shown
notes: copies: 2 + 2
B28: MB126 (antibody, mouse IgG1, kappa)
heavy: B1 heavy with E229T, P230V, E234S, L235Y
light: not shown
notes: copies: 2 + 2
B29: MB118 (antibody, mouse IgG1, kappa)
heavy: B1 heavy with E229T, P230V, E234S, L235M
light: not shown
notes: copies: 2 + 2
B30: MB034 (antibody, mouse IgG1, kappa)
heavy: B1 heavy with E229T, P230T, E234S, L235S
light: not shown
notes: copies: 2 + 2
B31: MB199 (antibody, mouse IgG1, kappa)
heavy: B1 heavy with E229T, P230V, E234S, L235S, S263A
light: not shown
notes: copies: 2 + 2
B32: MB121 (antibody, mouse IgG1, kappa)
heavy: B1 heavy with E229T, P230V, E234S, L235Q
light: not shown
notes: copies: 2 + 2

Target: T1, mouse FcγRIII
Assay: SPR (Biacore), antibody captured on Protein L
Experimental: (§1) Each altered antibody was analyzed for its interaction with each Fcγ receptor prepared above using Biacore T100 (GE Healthcare Japan Corp.), Biacore T200 (GE Healthcare Japan Corp.), Biacore A100, or Biacore 4000. The running buffer used was HBS-EP+ (GE Healthcare Japan Corp.). The assay temperature was set to 25° C. The sensor chips used were chips prepared by immobilizing Protein L (ACTIGEN or BioVision) onto Series S Sensor Chip CM5 (GE Healthcare Japan Corp.) or Series S Sensor Chip CM4 (GE Healthcare Japan Corp.) by the amine coupling method.
(§2) In order to calculate the KD value of each altered antibody for FcγR, kinetic analysis was conducted according to the following method: first, the antibody of interest was captured onto any of these chips and allowed to interact with mFcγR diluted with a running buffer. For the obtained sensorgram, the assay results were globally fit into the 1:1 Langmuir binding model using Biacore Evaluation Software to calculate an association rate constant ka (L/mol/s) and a dissociation rate constant kd (1/s). From these values, the dissociation constant KD (mol/L) was calculated.

Row | Kd | Binder
1 | 5320 nM | B1
2 | 3020 nM | B2
3 | 3480 nM and 5870 nM | B3
4 | 1270 nM | B4

The binders below were run against T2, mouse FcγRII (assay: SPR (Biacore), antibody captured on Protein L).
Experimental: as §1, §2

Row | Kd | Binder
5 | 345 nM | B1
6 | 306 nM | B2
7 | 118 nM and 211 nM | B3
8 | 171 nM | B4

Target: T3, mouse FcγRIII
Assay: SPR Biacore T200, KD ratio

Row | Relative mFcγRIII-binding activity (MB110 = 1) | relative mFcγRIII-binding activity (mIgG1 = 1) | Binder
9 | 1 fold | 4 fold | B5

These binders were tested against T4, mouse FcγRII (assay: SPR Biacore T200, KD ratio).

Row | Relative mFcγRII-binding activity (MB110 = 1) | relative mFcγRII-binding activity (mIgG1 = 1) | Binder
10 | 1 fold | 12.3 fold | B5

Target: T1, mouse FcγRIII
Assay: SPR (Biacore), KD of H237-mIgG1/MRAL-k0 (same run) / KD of variant
Experimental: as §1, §2

Row | relative mFcγRIII-binding activity (mIgG1 = 1) | Binder
11 | 0.1 fold | B1
12 | 0.11 fold | B2
13 | 0.09 fold | B3
14 | 0.25 fold | B4

These binders were tested against T2, mouse FcγRII in the same assay as above.
Experimental: as §1, §2

Row | relative mFcγRII-binding activity (mIgG1 = 1) | Binder
15 | 0.94 fold | B1
16 | 0.7 fold | B2
17 | 1.24 fold | B4

Target: T3, mouse FcγRIII
Assay: SPR Biacore 4000, KD ratio
Experimental: as §1, §2

Row | relative mFcγRIII-binding activity (mIgG1 = 1) | Binder
18 | 4.45 fold | B5
19 | 1.22 fold | B6
20 | 1.13 fold | B7
21 | 1.81 fold | B8
22 | 1.29 fold | B9
23 | 0.56 fold | B10
24 | 1.2 fold | B11
25 | 2.42 fold | B12
26 | 2.37 fold | B13
27 | 1.2 fold | B14
28 | 1.11 fold | B15
29 | 1.05 fold | B16
30 | 1 fold | B17
31 | 1.17 fold | B18
32 | 6.32 fold | B19
33 | 0.9 fold | B20
34 | 1.39 fold | B21
35 | 1.2 fold | B22
36 | 1.37 fold | B23
37 | 1.23 fold | B24
38 | 1.02 fold | B25
39 | 1.48 fold | B26
40 | 1.11 fold | B27
41 | 0.94 fold | B28
42 | 0.99 fold | B29
43 | 1.12 fold | B30
44 | 1.19 fold | B31
45 | 0.94 fold | B32

Each binder was assayed against T4, mouse FcγRII (assay: SPR Biacore 4000, KD ratio).
Experimental: as §1, §2

Row | relative mFcγRII-binding activity (mIgG1 = 1) | Binder
46 | 15.1 fold | B5
47 | 1.54 fold | B6
48 | 1.47 fold | B7
49 | 2.11 fold | B8
50 | 3.27 fold | B9
51 | 2.09 fold | B10
52 | 1.54 fold | B11
53 | 6.19 fold | B12
54 | 2.62 fold | B13
55 | 1.36 fold | B14
56 | 5.01 fold | B15
57 | 1.27 fold | B16
58 | 1.16 fold | B17
59 | 1.47 fold | B18
60 | 7.42 fold | B19
61 | 1.2 fold | B20
62 | 2.12 fold | B21
63 | 1.4 fold | B22
64 | 3.15 fold | B23
65 | 1.49 fold | B24
66 | 1.36 fold | B25
67 | 1.99 fold | B26
68 | 1.75 fold | B27
69 | 1.58 fold | B28
70 | 1.74 fold | B29
71 | 1.25 fold | B30
72 | 1.48 fold | B31
73 | 1.48 fold | B32
